No end group written: not given here. *: point of attachment. Biotin = O=C1N[C@H]2[C@H](CS[C@H]2CCCCC(=O)*)N1
Tests used:
[1] = molecular target: T1, Aβ oligomers and Aβ fibers (Homo sapiens, UniProt P05067); assay: Experiment of precipitation of Aβ conformers by biotinylated peptide with streptavidin-magnet beads, Western blot; type: binding; settings: biotinylated peptide added 1.5 hours after dissolution of Aβ1-42, FIG. 9
T1 construct: Aβ1-42 was dissolved at a concentration of 40 μM in 20 mM phosphate buffer
Procedure: Aβ1-42 was dissolved at a concentration of 40 μM in 20 mM phosphate buffer (pH 7.0). The TAT-B6-L1 or TAT-B7-C15 peptide adjusted to 40 μM was added 1.5 hours thereafter at a ratio of 1:1 by liquid volume, and the reaction was allowed to proceed at 37° C. for 1 hour (final concentration: Aβ (20 μM)/synthesized peptide (20 μM)). After the reaction, an aliquot thereof was sampled as a sample before immunoprecipitation (“Before precipitation”), and the remaining sample was reacted with M-280 streptavidin-magnet beads (Dynal Biotech, Oslo, Norway) adjusted to 20 μg/μl on ice for 1 hour at a ratio of 1:1 by liquid volume (final concentration: Aβ (10 μM)/synthesized peptide (10 μM)/beads (10 μg/μl)). After the reaction, the beads were precipitated using a magnet to obtain “Supernatant.” To the precipitated beads, PBS was added in a liquid volume equal to that of the recovered supernatant to obtain a “Precipitate.” Each obtained sample was electrophoresed and subjected to Western blot analysis using anti-Aβ antibodies.
Aβ1-42 was dissolved at a concentration of 40 μM in 20 mM phosphate buffer (pH 7.0). The biotinylated TAT-B6-L1 or TAT-B7-C15 peptide was added thereto 1.5 hours thereafter, and the conjugates were precipitated using streptavidin-magnet beads.

[2] = molecular target: T2, Aβ1-42 peptide (Homo sapiens, UniProt P05067); assay: Experiment of inhibition of amyloid β fibrillogenesis (thioflavine T fluorescence); type: biochemical; settings: peptide 1.65, 16.5, 33 nM; Aβ1-42 40 μM, phosphate buffer pH 7.0; 0, 6, 24 hours; FIG. 8
T2 construct: Aβ1-42 was dissolved at a concentration of 40 μM in 20 mM phosphate buffer
Procedure: The synthesized peptide (TAT-B6-L1, B6-L1-TAT, TAT-B7-C15, or TAT-B7-S15) was added at various concentrations (1.65 nM, 16.5 nM, and 33 nM) to the Aβ1-42 peptide diluted to 40 μM using 20 mM phosphate buffer (pH 7.0). The sample (10 μl) was recovered 0, 6, and 24 hours thereafter, 90 μl of 11 μM thioflavine T (Sigma)/phosphate buffer was added, and fluorescence intensity at 482 nm generated by the excitation light at 450 nm was measured using a multilabel plate counter, Wallac 1420 ARVO sx (Perkin-Elmer; Wellesley, Mass.).
Results of measuring activity of inhibiting Aβ1-42 fibrillogenesis by a fusion peptide of TAT and B6-L1, B7-C15, or B7-S15 are shown in FIG. 8. The experiment of inhibition of fibrillogenesis was conducted according to the procedures described in the experiment of inhibition of fibrillogenesis above.

[3] = tested on: B6 scFv; assay: ELISA: binding of B6 scFv to plate-coated synthesized TAT fusion peptide; set-up: species or system human; settings: ELISA plate coated with peptide 200 ng/well; B6 scFv at various concentrations; FIG. 7
Procedure: (5) The fusion peptide of TAT and B6-L1 was recognized by B6 scFv (FIG. 7). An ELISA plate was coated with the synthesized peptide TAT-B6-L1 or B6-L1-TAT under conditions of 200 ng/well. After addition of B6 scFv at various concentrations, binding activity thereof was inspected. A control peptide used was an unrelated peptide (GSGGGSCGYWRSEWGLCG)(SEQ ID NO: 32).

T1 sequence (P05067 672-713 limits assumed): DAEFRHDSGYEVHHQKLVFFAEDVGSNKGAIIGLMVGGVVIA
T2 sequence (P05067 672-713 limits assumed): as above
Chain of B6 scFv (as listed by the source): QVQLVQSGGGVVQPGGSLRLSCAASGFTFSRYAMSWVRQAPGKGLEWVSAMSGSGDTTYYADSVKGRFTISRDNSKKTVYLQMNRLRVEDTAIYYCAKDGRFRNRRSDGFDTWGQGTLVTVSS
Chain of B6 scFv (as listed by the source): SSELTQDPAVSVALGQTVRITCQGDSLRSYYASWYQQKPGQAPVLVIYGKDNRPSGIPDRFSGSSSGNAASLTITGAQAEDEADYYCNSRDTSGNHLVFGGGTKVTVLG

Row | Substance | precipitation of Aβ oligomers or Aβ fibers by the peptide [1] | activity of inhibiting Aβ1-42 fibrillogenesis [2] | binding activity of B6 scFv to coated peptide [3]
1 | TAT-B6-L1: B6-L1 sequence having a TAT sequence fused at the amino terminus, SEQ ID NO: 24 (Biotin-YGRKKRRQRRRGMLDIFAPIRHV) | such Aβ oligomers or Aβ fibers were observed in the precipitate | demonstrated to have the activity of inhibiting fibrillogenesis | Binding reaction dependent on the amount of B6 scFv was observed
2 | GSGGGSCGYWRSEWGLCG (Designed peptide based on the sequence unrelated to B6 scFv) [control peptide, reference compound] | No precipitation reaction was observed | no inhibiting activity | –
3 | TAT-B7-C15: B7-C15 sequence (glycine added to carboxyl terminus) having a TAT sequence fused at the amino terminus, SEQ ID NO: 26 (Biotin-YGRKKRRQRRRCYGTKPWMCG; cysteine pairing not given here) | such Aβ oligomers or Aβ fibers were observed in the precipitate | demonstrated to have the activity of inhibiting fibrillogenesis | –
4 | B6-L1-TAT: B6-L1 sequence having a TAT sequence fused at the carboxyl terminus, SEQ ID NO: 25 (Biotin-GMLDIFAPIRHVYGRKKRRQRRR) | – | demonstrated to have the activity of inhibiting fibrillogenesis | Binding reaction dependent on the amount of B6 scFv was observed
5 | TAT-B7-S15: B7-S15 sequence having a TAT sequence fused at the amino terminus, SEQ ID NO: 27 (Biotin-YGRKKRRQRRRSYGTKPWMSG) | – | demonstrated to have the activity of inhibiting fibrillogenesis | –

Reference: patent publication US8586706B2, “Peptide vaccine using mimic molecules of amyloid β peptide” (Kagoshima University, priority 2007, dated 2013)
